From PMC6779754, “Brain-specific homeobox Bsx specifies identity of pineal gland between serially homologous photoreceptive organs in zebrafish”

Columns and labels:
GST-Bsx [1] = molecular target: T1, GST-Bsx (zebrafish, UniProt Q6R3Q6 1-227); test: competition; competitor vs BSXRE probe (EMSA); EMSA: DIG Gel Shift Kit (Roche) per manufacturer, 2.0 pmol GST-Bsx with 32 fmol DIG-oligonucleotide or 8 fmol DIG-147bp probe; buffer, pH and temperature not stated; conditions: protein: recombinant; tags: N-terminal GST (pGEX-5X-1); annealed synthetic oligonucleotides
GST-Bsx [2] = molecular target: T1, GST-Bsx; test: EMSA; EMSA: DIG Gel Shift Kit (Roche) per manufacturer, 2.0 pmol GST-Bsx with 32 fmol DIG-oligonucleotide or 8 fmol DIG-147bp probe; buffer, pH and temperature not stated; conditions: protein: recombinant, tags: N-terminal GST (pGEX-5X-1), label: DIG, annealed synthetic oligonucleotides

T1 sequence (Q6R3Q6 whole entry): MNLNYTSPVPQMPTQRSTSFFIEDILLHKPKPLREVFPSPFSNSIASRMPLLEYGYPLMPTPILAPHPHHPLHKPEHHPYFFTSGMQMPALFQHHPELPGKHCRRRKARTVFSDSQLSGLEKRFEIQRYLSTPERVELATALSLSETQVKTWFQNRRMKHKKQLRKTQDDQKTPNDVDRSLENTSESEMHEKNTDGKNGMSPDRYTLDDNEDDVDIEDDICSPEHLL

B1: D4 competitor (dsDNA)
DNA 1: GAATTCGATTCTGATAATCTGTGTGTGATCAAGCTT
DNA 2: AAGCTTGATCACACACAGATTATCAGAATCGAATTC
GST-Bsx [1]
  binding result: binds

B2: BSXRE probe (dsDNA)
DNA 1: GAATTCGATGGCGCTAATCGGTGGGGGATCAAGCTT
DNA 2: AAGCTTCATCCCCCACCGATTAGCGCCATCGAATTC
GST-Bsx [2]; 36-mer
  binding result: binds

B3: BSXRE-mut probe (dsDNA)
DNA 1: GAATTCGATGGCGCTACGATGTGGGGGATCAAGCTT
DNA 2: AAGCTTCATCCCCCACATCGTAGCGCCATCGAATTC
GST-Bsx [2]
  binding result: no binding

B4: P3 competitor (dsDNA)
DNA 1: GAATTCGATCTCCTGTAATCTGCCTAAATCAAGCTT
DNA 2: AAGCTTGATTTAGGCAGATTACAGGAGATCGAATTC
GST-Bsx [1]
  binding result: binds

B5: D2 competitor (dsDNA)
DNA 1: GAATTCGATTGTTTTTAATAAAGATTTATCAAGCTT
DNA 2: AAGCTTGATAAATCTTTATTAAAAACAATCGAATTC
GST-Bsx [1]
  binding result: binds

B6: D3 competitor (dsDNA)
DNA 1: GAATTCGATAGATTTAATATTTCAGTCATCAAGCTT
DNA 2: AAGCTTGATGACTGAAATATTAAATCTATCGAATTC
GST-Bsx [1]
  binding result: binds
